The values below come from publication PMC8888643.

pKd: −log10 of the molar value.

Assay [1] deals with SARS-CoV-2 main protease with the mutations E290A and R298A (MPro^M) (SARS-CoV-2). Description: AUC; sedimentation velocity, 50,000 rpm, 25 °C, buffer A; MPro^M at 18-90 µM, without inhibitor.
Assay [2] has the same target. Description: not stated; 10 µM MPro^M with a 10-fold molar excess of GC376 (100 µM); told with the CD spectra.
The target is the same in assay [3]. Description: AUC; sedimentation velocity, 50,000 rpm, 25 °C, buffer B with 0.1% DMSO; MPro^M at 6-7 µM with GC376 at 1-50 µM.
The target is the same in assay [4]. Description: enzyme kinetics (calculated from rate constants); dimer to monomers (K1); MPro^M, calculated from the slope of rate against [Mo]^2 (Eq. 3) and from k3/Ks found with GC376 (Eq. 6); buffer B, 28 °C.

What is called pKd is the Kd on a negative log10 scale, so that one unit is a factor of ten. What is called stoichiometry N is the number of molecules, sites or subunits per partner or assembly. As to “SARS-CoV-2 main protease with the mutations E290A and R298A (MPro^M) (enzyme)”, the pKd in assay [1] was < 4.05. The substance further came in with a percent dimeric with 10-fold molar excess of GC376 in assay [2] of 90%. In assay [3], the free monomer concentration [M] at [Mo] 10 µM and GC376 10 µM is 5e-06 M; the stoichiometry N turned out to be 2. In assay [4], the pKd was 2.18.
